Laboratory results: the supplement of paper PMC12042874
± gives the uncertainty stated by the source.

Assay: amyloid nucleation score (Sup35N fusion, yeast selection) (log enrichment); library NNK1; higher = more nucleation; inactive = no reads after selection
Procedure, shortened: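 Using DiMSum, nucleation scores were taken as the log enrichment of output over input reads, centred on the mode score of non-aggregating sequences. The input and output reads came from Illumina sequencing of plasmid inserts, with sequences under 100 input reads excluded. The yeast were psi-negative, expressed Sup35N fused to peptides of 20 random codons, were induced with 100 μM copper sulfate for 24 hours, and were grown 7 days at 30°C on medium lacking adenine and uracil.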

Row | Substance | amyloid nucleation score
1 | GMMHYRFLIFFWYTSRTAYW | -0.355 ± 0.84
2 | FNWLTVSAFHQHRTLTMNMY | 0.216 ± 0.3
3 | LFRYNDWCAYHLPSPWWGNR | 0.112 ± 0.83
4 | LITYLRLFYRITVRTG | 0.48 ± 0.4
5 | QYHYNGGLPRQFK | -0.534 ± 0.54
6 | SSVYVSIQLGGTLPRWGGVR | 1.19 ± 0.3
7 | CSLSRVNHDLMVKDSSKEQR | 4.3 ± 0.073
8 | SPQQVSLVGWSRWTEPRTS | -0.211 ± 0.36
9 | VFLFNTAYESKNPMSKLKVC | -1.24 ± 0.5
10 | VVRFCYTEEVRVFNQASLRE | 0.134 ± 0.5
11 | HRGLSLLAGVSALVWKSQMT | -0.4 ± 1.1
12 | VWRKTLRWPLGPWAGRS | -1.11 ± 0.46
13 | DNVLALDGWNLINCLTT | 0.155 ± 0.37
14 | MPCFCYTCGRVMLVRIRQTR | inactive
15 | NWYYRWELFVACFYLYSGWE | inactive
16 | RLFSENMQEVMV | -0.698 ± 0.52
17 | SCRLIDWVPSHSRYRTFCCE | -0.386 ± 0.37
18 | SIRMGSEVRSDNEMVMRWQM | 3.67 ± 0.16
19 | RCRIWEEIGPIGKGERSRGC | 0.405 ± 0.45
20 | ALYSQGSSTV | -1.15 ± 1.1
21 | HAIFCLSKLTFLGPILGSFT | 7.112 ± 0.048
22 | RVPATLNLLGVRQGRD | 0.26 ± 0.72
23 | VWTDGGSYFRDLNRICGV | 3.74 ± 0.084
24 | LAGNVS | 0.503 ± 0.67

Row | Substance | amyloid nucleation score
25 | LNEHLFR | 0.615 ± 0.87
26 | SVYPLF | -0.268 ± 0.28
27 | CRLYVVGFFKKL | inactive
28 | APDRNDHDKLCCLCDNWSAL | 0.056 ± 1.4
29 | QTGKRYGTFLGYDGLEGRPD | -0.502 ± 0.55
30 | NWYVVYSWSEQIYREDSMGT | -0.52 ± 0.71
31 | FGKLYF | -0.52 ± 0.98
32 | YVVCKGIRSSSWDSWVSKR | -0.393 ± 0.28
33 | AGKCGIQWACEM | 0.194 ± 0.69
34 | LRVVYPGPSYAGASDLSSMR | -0.926 ± 0.63
35 | KLGGFVFGANVCCEDLSYEF | 0.984 ± 0.55
36 | DIPVSHGAYL | -0.378 ± 0.84
37 | TIRVLDRTFVS | inactive
38 | PLAAYCSVDYGQKIQIATVP | -0.541 ± 0.42
39 | SQVEVIVYNVVSFTDGVRLA | 3.89 ± 0.097
40 | ARGTGGSKAAPNYLVYTGCR | 0.684 ± 0.48
41 | FPRHYCTYWG | -0.157 ± 0.36
42 | SGVWNEFEGCWMVDDVIDPL | 0.268 ± 0.44
43 | DYGIWELSINMSVKYLCWLP | 1.27 ± 0.13
44 | YNVKVMCSVQSEMRGIT | 0.465 ± 0.68
45 | RSSPHSGWQPVDLKY | -1.37 ± 2.4
46 | FSHIELLERAVLMSRVRFLW | -0.514 ± 1.5
47 | RDSINLLDFGIVITGAKKWS | 0.218 ± 0.27
48 | YKKRMLSLWYYGAGIQHRAL | 0.412 ± 0.43

Row | Substance | amyloid nucleation score
49 | GFGLVRIPIMFNEAPEVVSK | -0.133 ± 0.46
50 | ACDRMGGVSGPDSAAVWPYI | -1.91 ± 2.7
51 | GWENSLYNFFCLW | 0.342 ± 0.35
52 | LPGTSRRASRCLFACYVDMS | 0.676 ± 0.39
53 | LVFTMWLPKRDACPDLTTMM | 0.34 ± 0.47
54 | RSLFPFSSLDMGHRRVGGKV | 0.384 ± 0.52
55 | TMLWIVIARNFECEMGFNM | 3.1 ± 0.08
56 | ADAGGSQVWAYQAQIICPKW | -0.63 ± 1.3
57 | SPRRLGAVMVSRRVGVGKGW | 0.402 ± 1.4
58 | FLLMVWDIYECVGNTLKRCA | 0.027 ± 0.42
59 | SVNFRYPWCFTVGGMTVLLQ | 0.007 ± 0.73
60 | IFHSAVQTNLSGGCRAGVWL | 0.254 ± 0.83
61 | ISYSLRGSVRR | -0.032 ± 0.41
62 | DKRYGDEVRHTGRWSRSVVW | 0.013 ± 0.42
63 | GGKRVGNIVVRRAQIIIGRR | 1.07 ± 0.7
64 | RLFPDAMDSRRYIKWQRVV | 0.215 ± 0.42
65 | NVMIAIPYVGVDKRGMVSGM | 5.22 ± 0.1
66 | LYTITLLIALALTTEQAPPR | 1.67 ± 0.28
67 | RQFSSTRFCREHRITGMQLG | 0.369 ± 0.79
68 | MGFQFNTFCF | 8.144 ± 0.062
69 | TVVYDWFG | -0.078 ± 0.75
70 | TAASTHLVSACTLTKRCERL | -0.673 ± 0.92
71 | VTGHV | -0.019 ± 0.49
72 | GLFVREFPLDMIVVMVRSMC | -0.017 ± 0.97

Row | Substance | amyloid nucleation score
73 | TIIPLHIRAIYA | 0.956 ± 0.28
74 | SDQSPFLIGVPWFVIYNRGG | 1.69 ± 0.11
75 | QCAYGWFRIIVITRFFCEDS | -0.701 ± 0.37
76 | HCRKYTKTSR | -0.327 ± 0.47
77 | IDSFCKCDISCVIFSWIVVV | 0.024 ± 0.25
78 | TSENLNSASNLSSYVADMPI | 0.273 ± 0.35
79 | RGYVCTVVLSNILLGITTEG | 3.79 ± 0.097
80 | VVGELLGGTNRFGKRVSSMA | -0.057 ± 0.26
81 | CGDMKRSHGCYFGPRNRFCW | 0.517 ± 0.47
82 | VRSFDDLRVNVSRSRCAMAQ | -0.906 ± 0.71
83 | YYLSCNDSKGYSMRQFMYDV | -0.139 ± 0.81
84 | YQSFLASACSSEPIRFSKQH | 0.915 ± 0.66
85 | YGVMSLRGVRLVQDVKTRSF | -0.849 ± 0.62
86 | YLNTLRR | inactive
87 | GNPGFELWLLSMLIGA | inactive
88 | AYNDSAVGRAGGLFVVGLFV | -0.51 ± 0.58
89 | YYSLAVLTSLRARKSTVFND | -1.16 ± 0.78
90 | VVGRTEEEHLQHPSWCMCAL | 0.128 ± 1
91 | VPVGRWRSWICVRIRL | 0.831 ± 0.65
92 | LWSVVYIVIYHLMSNADWST | -0.252 ± 0.41
93 | NFYTFFQTRGFLSLSACALR | -1.12 ± 2.7
94 | ISYMHKLCLFSFYLDHKLTL | -1.49 ± 1.4
95 | LDKSGSLVPKRKVTLKDKQR | -0.375 ± 0.41
96 | FGGWNYYYLAVQYIFLDTGV | 2.45 ± 0.15

Row | Substance | amyloid nucleation score
97 | VMKDTQLLCNFRVSRVLMFE | inactive
98 | WSKHLAYIVYDVQ | -0.325 ± 1
99 | IVPPLSNCSFIG | -0.293 ± 0.6
100 | DFIVS | -0.198 ± 0.3
101 | TAYAFNDCEFEPVWSRIVGN | -0.412 ± 0.48
102 | SIMSFH | inactive
103 | WTRIDSSVYARKGFCAPRLP | 0.021 ± 1.1
104 | NVLVAVFLFYVGPIGVAHCY | 1.12 ± 0.37
105 | VDKYIIFIEIYIADSCDTLG | 0.374 ± 0.54
106 | SGWCGSTFSCERNPTVYSSC | 1.96 ± 0.26
107 | GGLICTGNFY | inactive
108 | TYPYRPLHSPFTNRFLSPNG | -0.926 ± 0.73
109 | GQTITP | -0.689 ± 1
110 | VTRTSYWGVFWSHSWRTWM | inactive
111 | DTYITGSHCHFYMNCWKA | 8.519 ± 0.079
112 | VVDMTVGFENARCGMREVWT | -0.328 ± 1.3
113 | QIRLYSSGWMFGCAAYVVSM | 0.853 ± 0.41
114 | VGIWIGVDMGIGWGRDSVYV | 0.125 ± 0.53
115 | MGTLDI | inactive
116 | GFDKLVGPCGYGLRRGSLWR | 0.781 ± 0.52
117 | LLITNGMSNDGNQCSS | inactive
118 | IVVFQGVCTKMLRTDELIWR | 1.18 ± 0.2
119 | VYFIVVVKGRSGLFMLSFGD | -0.997 ± 1.4
120 | MAVYFLGFIA | 0.604 ± 0.59

Row | Substance | amyloid nucleation score
121 | RDMMMRRWVVSKSEL | 0.711 ± 0.72
122 | SCDYGL | 0.512 ± 0.63
123 | KITSEPTKFYMGVCPSRSEL | -0.112 ± 0.44
124 | QVCRARMHMEVGAMGTFHAS | 0.521 ± 0.41
125 | DVLLCSIRTSSHDMIIMRKR | 0.553 ± 0.65
126 | AHSAYL | 0.43 ± 0.4
127 | LQNVGRENEESTCERRSKVY | inactive
128 | DNINKLSWTRSILELG | -0.452 ± 0.62
129 | RVTYNSETTRCFCEVFAPYR | -0.875 ± 2.4
130 | YIGRGNMHELFHRLLRGCVL | inactive
131 | HTTFKGKSEAATRIIATQAR | -0.011 ± 0.41
132 | DKISWLSHQLRWDSRMSNLE | 1.1 ± 0.66
133 | NSCQNPSEGF | -0.376 ± 1.2
134 | TFSFARLRDLKWVMPRVRRS | 0.27 ± 0.44
135 | SWFTVRCDDC | inactive
136 | GGEDLRKFLDMFVIVSKNTT | 0.67 ± 0.46
137 | VWMYMHAFCYSTGRRKAMPG | -1.76 ± 0.77
138 | KKTGVVGVYK | -1.26 ± 1.1
139 | LRMNLSRKPANFCFKCIIGK | -0.348 ± 0.5
140 | GSSRKSIVNIRILPSFALAE | -0.272 ± 0.52
141 | IKWTLLDG | 0.871 ± 0.47
142 | VDRGCKYKQLMREVVSEHVI | 0.753 ± 0.63
143 | TTRHSNQSIM | 0.344 ± 0.4
144 | HILRIWLRGLWMILYRTYEN | -0.513 ± 0.84

Row | Substance | amyloid nucleation score
145 | DSTFHMDYY | -0.121 ± 0.5
146 | HAKHLLRKQWLDGCA | inactive
147 | LNNAGTFFLPEVFRLRWTNV | 0.018 ± 0.93
148 | NNMWSILTAAWDHVCSWRSS | 1.77 ± 0.5
149 | FYEASDRGERLEQKLKLTVL | 1.51 ± 0.49
150 | MIVDNHWHECYSRAS | -1.76 ± 1.4
151 | THAMCRYQSHGKLLSSGADS | 0.781 ± 0.65
152 | AGCHGSDSHPFRQPSPLLLF | 0.462 ± 1.2
153 | QSADLMNSMTLICGWSVQIA | 4.43 ± 0.12
154 | NILGIAHTIGCLLLTFCCTL | inactive
155 | YVFLRFVSVCSYN | 4.9 ± 0.05
156 | RYYYAQEWPVALFLSRPKVP | 0.406 ± 0.63
157 | YRVHVCQEWMGSWCCGCVKG | 2.54 ± 0.2
158 | DAIPFMFPNLMVMK | 0.155 ± 0.55
159 | TCFSSILKDMVWRNRRRWGY | 0.216 ± 0.84
160 | RIELLWRKVSGKCLVQDFDI | 0.117 ± 0.47
161 | SQYQTLDVHIKGNVCSNLDM | 0.012 ± 1.6
162 | RSVGFEGMSNGWCATES | 0.634 ± 0.77
163 | AIRFDLVTFAAIEGIIYKGR | 0.136 ± 1
164 | AMPADIILVVGLSCDDRREG | 0.724 ± 0.52
165 | YWAIVW | -0.128 ± 0.39
166 | CLDMVWDLTVMFMF | 1.11 ± 0.19
167 | LSFAKGSVFITGDCISGTVD | -1.49 ± 1.7
168 | AMYHLGQSSLLYSRPFNSTK | -0.595 ± 1.6
